“And” between values parts separate entries of the source, which are not always exact repeats. Identical values can stand only once.

What all share (assay): SEC
The target in test [1] is Plasmodium falciparum glyceraldehyde 3-phosphate dehydrogenase I209T variant (recombinant) (Plasmodium falciparum) (UniProt Q8IKK7).
Test [2] addresses Plasmodium falciparum glyceraldehyde 3-phosphate dehydrogenase V238A variant (recombinant) (Plasmodium falciparum) (UniProt Q8IKK7).
Test [3] deals with Plasmodium falciparum glyceraldehyde 3-phosphate dehydrogenase, wild type (recombinant) (Plasmodium falciparum) (UniProt Q8IKK7).

In general, stoichiometry N refers to a count of units in the complex or per binding partner. Regarding “Plasmodium falciparum glyceraldehyde 3-phosphate dehydrogenase I209T variant (recombinant) (from UniProt Q8IKK7 4-335) (enzyme)”, in test [1], the stoichiometry N was 4 and 2.

For “Plasmodium falciparum glyceraldehyde 3-phosphate dehydrogenase V238A variant (recombinant) (from UniProt Q8IKK7 4-335) (enzyme)”, the stoichiometry N in test [2] was 4 and 2.

Regarding “Plasmodium falciparum glyceraldehyde 3-phosphate dehydrogenase, wild type (recombinant) (from UniProt Q8IKK7 4-335) (enzyme)”, the stoichiometry N in test [3] amounted to 4.

The values above are taken from paper doi:10.1101/2021.11.05.467329.
